These results are taken from article PMC9876794 (2022).

Sequences and labels used below:
B1: D083 (antibody, V domains shown)
VH: EVQLVQSGAEVKKPGESLKISCKGSGYSFTSHWIGWVRQMPGKGLEWMGIIYPGDSDTRYSPSFQGQVTISADKSISTAYLQWSSLKASDTAMYYCARHIKSDLWFGEKDSWGQGTLVTVSS
VL: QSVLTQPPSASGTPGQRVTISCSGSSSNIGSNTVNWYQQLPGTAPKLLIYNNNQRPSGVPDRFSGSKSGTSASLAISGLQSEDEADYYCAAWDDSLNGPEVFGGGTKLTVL
B2: C2709 (antibody, V domains shown)
VH: EVQLVESGGGLVQPGGSLRLSCAASGFTVSSNYMSWVRQAPGKGLEWVSVIYSGGSTYYADSVKGRFTISRDNSKNTLYLQMNSLRAEDTAVYYCARDNEHYGSGSLTLDYWGQGTLVTVSS
VL: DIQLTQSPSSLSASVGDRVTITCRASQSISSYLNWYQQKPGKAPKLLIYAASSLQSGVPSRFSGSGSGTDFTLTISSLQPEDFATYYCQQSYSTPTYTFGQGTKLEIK
B3: C2739 (antibody, V domains shown)
VH: EVQLVESGGGLVQPGGSLRLSCAASGFTFSSYWMSWVRQAPGKGLEWVANIKKDGSEKYYVDSVKGRFTISRDNDKNSLYLQMNSLRAEDTAVYYCARKKYYYGDFDYWGQGTLVTVSS
VL: NFMLTQPHSVSESPGKTVTISCTRSSGSIASNYVQWYQQRPGSSPTTVIYEDNQRPSGVPDRFSGSIDSSSNSASLTISGLKTEDEADYYCQSYDSIIREVFGGGTKLTVL
B4: D145 (antibody, V domains shown)
VH: QVQLVESGGGVVQPGRSLRLSCAASGFTFSSYGMHWVRQAPGKGLEWVAVISYDGSNKYYADSVKGRFTISRDNSKNTLYLQMNSLRAEDTAVYYCAKGSGPYYYDSSGYYSLFDYWGQGTLVTVSS
VL: EIVMTQSPATLSVSPGERATLSCRASQSISSNLAWYQQKPGQAPRLLIDGASTRATGIPARFSGSGSGTEFTLTISSLQSEDFAVYYCQQYNNWPTFGQGTKLEIK
B5: D045 (antibody, V domains shown)
VH: EVQLVESGGGLVQPGGSLRLSCAASGFTFSSYSMNWVRQAPGKGLEWVSYISSSSSTIYYADSVKGRFTISRDNAKNSLYLQMNSLRDEDTAVYYCARHYGSGSSYYYYGMDVWGQGTTVTVSS
VL: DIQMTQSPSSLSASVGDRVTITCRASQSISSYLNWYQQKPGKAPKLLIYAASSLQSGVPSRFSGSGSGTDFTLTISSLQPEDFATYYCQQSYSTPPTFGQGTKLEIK
B6: D138 (antibody, V domains shown)
VH: QVQLVESGGGVVQPGRSLRLSCAASGFTFSSYGMHWVRQAPGKGLEWVAVISYDGSNKYYADSVKGRFTISRDNSKNTLYLQMNSLRAEDTAVYYCAKRAPYYYGPGGIDYWGQGTLVTVSS
VL: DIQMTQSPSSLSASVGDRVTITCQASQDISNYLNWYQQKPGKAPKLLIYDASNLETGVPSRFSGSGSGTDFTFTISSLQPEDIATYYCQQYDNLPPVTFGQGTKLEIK
B7: C2702 (antibody, V domains shown)
VH: EVQLVESGGGLVQPGGSLRLSCAASGFTFSSYSMNWVRQAPGKGLEWVSYISSSSSTIYYADSVKGRFTISRDNAKNSLYLQMNSLRDEDTAVYYCASFLWDHSGYDLLFGMDVWGQGTTVTVSS
VL: not shown
B8: D063 (antibody, V domains shown)
VH: EVQLVQSGAEVKKPGESLKISCKGSGYSFTSYWIGWVRQMPGKGLEWMGIIYPGDSDTSPSFQGQVTISADKSISTAYLQWSSLKASDTAMYYCARVLNWNLGDYWGQGTLVTVSS
VL: not shown
B9: D008 (antibody, V domains shown)
VH: QVQLVESGGGVVQPGRSLRLSCAASGFTFRSYGMHWVRQAPGKGLEWVAVISYDGSTKYYADSVKGRFTISRDNSKNTLYLQMNSLRAEDTAVYYCAKGGYYYDSNTYYVYWGQGTLVTVSS
VL: DIQMTQSPSSLSASVGDRVTITCQASQDISNHLNWYQQKPGKAPKLLIYDASNLETGVPSRFSGSGSGTDFTFTISSLQPEDIATYYCQQYDNLPPITFGQGTRLEIK
B10: C2705 (antibody, V domains shown)
VH: EVQLVQSGAEVKKPGESLKISCKGSGYSFTSYWIGWVRQMPGKGLEWMGIIYPGDSDTRYSPSFQGQVTISADKSISTAYLQWSSLKASDTAMYYCARPVVTDYWYFDLWGRGTLVTVSS
VL: not shown

The first assay deals with T1, SARS-CoV-2 spike RBD (WT) (Severe acute respiratory syndrome …, UniProt P0DTC2). In words: BLI.
Take B1: the Kd stood at 12.3 nM.
Still for that read-out and setting: next, B2: 115 nM.
On the same count and under the same terms, next, B3: 287 nM.
On the same count and under the same terms, for B4 the value was 46.4 nM; for B5, 61.1 nM; for B6, 201 nM.
Regarding B7, the Kd stood at 125 nM.
Still for that read-out and setting: next, B8: 94.8 nM.
Still for that read-out and setting: next, B9: 10.5 nM; B10: 14 nM.

Another assay addresses T1, SARS-CoV-2 spike RBD (WT). In words: ELISA. Also on record: unit not given here.
For B1, the binding score came out at 62.7.
As to B2, the binding score came out at 5050.
The same measure, in the same setting: next, B3: 52.3; B4: 0.826; B5: 15.7.
On the same count and under the same terms, next, B6: 368; B7: 295; B8: 9040.
Still for that read-out and setting: next, B9: 12.4.
The molecule B10 yielded a binding score of 867.
